# Assay results: publication PMC5487423 (2017)
# Read-outs that look alike come from different tables or passages of the source.
# T1: CCL4_HUMAN (Homo sapiens)
# T1 chain: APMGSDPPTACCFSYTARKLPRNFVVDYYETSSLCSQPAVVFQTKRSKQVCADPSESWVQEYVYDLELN
# T2: CCL4L1_HUMAN (Homo sapiens)
# T2 chain: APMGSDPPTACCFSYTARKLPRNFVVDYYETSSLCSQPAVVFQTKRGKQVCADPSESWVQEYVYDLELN
# T3: CCL5 (human, UniProt P13501 24-91)
# T3 chain: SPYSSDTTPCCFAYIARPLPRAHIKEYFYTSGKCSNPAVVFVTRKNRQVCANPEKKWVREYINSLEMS
# T4: CCL3L1_HUMAN (Homo sapiens)
# T4 chain: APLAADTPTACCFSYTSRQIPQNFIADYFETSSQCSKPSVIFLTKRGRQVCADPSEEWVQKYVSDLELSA
# T5: CCL17_HUMAN (Homo sapiens)
# T5 chain: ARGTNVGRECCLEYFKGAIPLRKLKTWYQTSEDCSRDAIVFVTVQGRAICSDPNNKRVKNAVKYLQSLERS
# T6: CCL19_HUMAN (Homo sapiens)
# T6 chain: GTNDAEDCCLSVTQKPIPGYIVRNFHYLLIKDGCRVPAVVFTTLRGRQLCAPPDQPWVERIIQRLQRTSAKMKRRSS
# T7: CCL24_HUMAN (Homo sapiens)
# T7 chain: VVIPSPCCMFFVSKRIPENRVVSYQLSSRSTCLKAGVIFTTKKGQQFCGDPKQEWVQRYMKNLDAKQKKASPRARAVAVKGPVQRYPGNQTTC
# T8: CCL16_HUMAN (Homo sapiens)
# T8 chain: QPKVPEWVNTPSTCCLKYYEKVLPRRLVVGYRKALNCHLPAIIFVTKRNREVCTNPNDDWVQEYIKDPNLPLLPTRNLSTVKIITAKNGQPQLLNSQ
# T9: CCL22_HUMAN (Homo sapiens)
# T9 chain: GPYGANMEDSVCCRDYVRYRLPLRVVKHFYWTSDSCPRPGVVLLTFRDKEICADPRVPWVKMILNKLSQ
# T10: CCL14_HUMAN (Homo sapiens)
# T10 chain: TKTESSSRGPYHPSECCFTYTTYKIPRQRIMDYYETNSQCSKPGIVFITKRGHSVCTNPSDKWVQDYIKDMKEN
# T11: CCL8 (human, UniProt P80075 24-99)
# T11 chain: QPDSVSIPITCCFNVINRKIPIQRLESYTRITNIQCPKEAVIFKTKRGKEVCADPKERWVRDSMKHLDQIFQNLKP
# T12: CCL18_HUMAN (Homo sapiens)
# T12 chain: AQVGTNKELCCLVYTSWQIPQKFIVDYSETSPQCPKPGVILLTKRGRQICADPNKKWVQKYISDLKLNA
# T13: CCL3 (human, UniProt P10147 24-92)
# T13 chain: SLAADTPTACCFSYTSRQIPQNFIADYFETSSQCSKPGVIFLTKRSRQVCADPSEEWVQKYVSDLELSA
# B1: P991_AMBCA, purified, C-terminal StrepII-8xHis tag (natural protein)
# chain: ETGENGEGTTQPDYDNSTDYYNYEDFKCTCPAPHLNNTNGTVMKPIGCYYTCNVTRCTAPDTYPCYNLTEHQAKNLTTSPTTLCAVGNCDHGICVPNGTKELCFKAPNLEE
# Legend:
# Test in all cases: BLI
# [1] = target: CCL24_MOUSE
# [2] = target: CCL15_HUMAN
# [3] = target: CCL12_MOUSE
# [4] = target: CCL23_HUMAN
# [5] = target: CCL8_MOUSE
# [6] = target: CCL27_MOUSE
# [7] = target: CCL19_MOUSE
# [8] = target: CCL6_MOUSE
# [9] = target: CCL27_HUMAN
# [10] = target: CCL9_MOUSE
# [11] = target: T1, CCL4_HUMAN
# [12] = target: CCL13_HUMAN (Homo sapiens)
# [13] = target: T2, CCL4L1_HUMAN
# [14] = target: T3, CCL5
# [15] = target: T4, CCL3L1_HUMAN
# [16] = target: T5, CCL17_HUMAN
# [17] = target: CCL11 (human, UniProt P51671 24-97)
# [18] = target: T6, CCL19_HUMAN
# [19] = target: T7, CCL24_HUMAN
# [20] = target: T8, CCL16_HUMAN
# [21] = target: T9, CCL22_HUMAN
# [22] = target: T10, CCL14_HUMAN
# [23] = target: CCL7 (human, UniProt P80098 24-99)
# [24] = target: T11, CCL8
# [25] = target: CCL2 (human, UniProt P13500 24-99)
# [26] = target: T12, CCL18_HUMAN
# [27] = target: T13, CCL3
# [28] = target: T6, CCL19_HUMAN
# Chain of CCL2 (P13500 24-99): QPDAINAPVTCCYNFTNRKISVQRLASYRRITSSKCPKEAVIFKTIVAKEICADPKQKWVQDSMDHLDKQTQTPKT
# Chain of CCL13_HUMAN (Homo sapiens) (chain, as listed by the source): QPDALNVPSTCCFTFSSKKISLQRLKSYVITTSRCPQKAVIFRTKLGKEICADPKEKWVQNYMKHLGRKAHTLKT
# Chain of CCL11 (P51671 24-97): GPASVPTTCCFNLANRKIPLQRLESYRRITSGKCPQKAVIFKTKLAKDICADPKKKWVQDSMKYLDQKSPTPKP
# Chain of CCL7 (P80098 24-99): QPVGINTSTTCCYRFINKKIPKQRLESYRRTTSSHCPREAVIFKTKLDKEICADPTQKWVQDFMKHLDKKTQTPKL
binder,measurement,setting,value
B1,Kd,[1],3.16 nM
same,Kd,[2],159 nM
same,Kd,[3],7.47 nM
same,Kd,[4],5.58 nM
same,Kd,[5],4.83 nM
same,Kd,[6],58 nM
same,Kd,[7],4.81 nM
same,Kd,[8],1.52 nM
same,Kd,[9],38.9 nM
same,Kd,[10],13.3 nM
same,Kd,[11],5.8 nM
same,Kd,[12],0.42 nM
same,Kd,[13],0.83 nM
same,Kd,[14],1.5 nM
same,Kd,[15],1.4 nM
same,Kd,[16],7.7 nM
same,Kd,[17],3.4 nM
same,Kd,[18],14 nM
same,Kd,[19],6.5 nM
same,Kd,[20],1.3 nM
same,Kd,[21],4 nM
same,Kd,[22],0.43 nM
same,Kd,[23],0.51 nM
same,Kd,[24],8.8 nM
same,Kd,[25],12 nM
same,Kd,[26],0.21 nM
same,Kd,[27],1.1 nM
same,Kd,[28],14.4 nM
